Consider 14 molecules from patent US20190367592A1 (AC IMMUNE, published 2019).

Assay [1] deals with T1, recombinant human Tau monomer, 2N4R isoform (amino acids 2-441) (human, UniProt P10636-8 2-441).
T1 construct: range 2-441; N-terminal His-tag removed with TEV protease; also called monomeric Tau
Description: SPR; Normalized Rmax post-stress (2 weeks 40 C) / pre-stress. In short, it runs like this:
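Antibodies purified by protein A tip columns were normalized to 0.1 mg/ml; pre-stress kept ~4° C., post-stress held at 40° C. for two weeks. IgG (2 μg/ml) was captured on an anti-human IgG CM5 chip, Tau monomer injected at 0, 26.5 and 265 nM, 25° C., in HBSP; KD from 1:1 fit.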
(In SPR one partner is held on a chip, and binding of the other changes the refractive index at the surface.)

The target in assay [2] is T1, recombinant human Tau monomer, 2N4R …. Description: SPR, captured IgG, Tau monomer analyte, 1:1 model; fit-quality column: -. On the procedure: Briefly, IgGs in 1 mL culuture were captured using tip columns that were custom packed with 20 μL MabSelect SuRe resin (Glygen Corp & GE Healthcare). After washing with 1×PBS pH 7.4, IgGs were eluted into 160 μL of 50 mM phosphoric acid pH 3 and neutralized with 12 μL of 20×PBS pH 11. MabSelect SuRe tip columns were stripped in 0.1 M NaOH and regenerated with 1×PBS pH 7.4 for consecutive use of up to 15 times. Purified antibodies in 96-well format were normalized to 0.1 mg/ml using a Hamilton Star liquid handling robot. The “pre-stress” samples were kept at approximately 4° C. and the “post-stress” samples were incubated at 40° C. for two weeks in a PCR machine. Functional stability of the variants was compared by running surface plasmon resonance kinetics experiments with the “pre-stress” and “post-stress” antibody preps. The antibodies were assessed using a human antibody capture CM5 Series S chip generated using the GE Biacore human IgG capture kit and a Biacore T200 instrument. Antibodies diluted to 2 μg/ml were immobilized using a 15 second injection time and 10 μl/min flow rate. Binding to Tau monomer at 0 nM, 26.5 nM and 265 nM, at 25° C., using a flow rate of 40 μl/min, was monitored for a 180 second association phase followed by a 300 second dissociation phase. Samples were run in 10 mM HEPES pH7.4, 150 mM NaCl, 0.05% Tween 20 (HBSP) using a multi-cycle kinetics format. Data was analyzed using BIAevaluation software, fitting a 1:1 binding model. The resulting affinity (KD) values are shown in FIG. 8A-D. A Stability Index was also calculated, using the rationale that affinity-compromised antibodies (due for example to deamidation of key residues) are expected to contribute equally to the IgG capture level (“Ligand Level”) but to contribute less to the measured Tau binding, and that this would be reflected in the experimentally derived value for Rmax. To account for variations in the amount of each antibody captured, Rmax was normalized for the antibody capture level (as measured by “Ligand Level”, Response Units immobilized during antibody capture). Thus Normalized Rmax is calculated as the experimental Rmax (units=RU) divided by the “Ligand Level” (Evaluation output representing the RU captured during the hIgG capture step, units=RU), and Stability Index is calculated here as Normalized Rmax (post-stress) divided by Normalized Rmax (pre-stress).

Assay [3] shares this target. In words: SPR screen, hIgG captured, Tau monomer analyte. From the text: Antibody 125B11-H3 was humanized onto VH3 and Vκ1 consensus frameworks. The heavy chain graft included murine residues at position 78 (Kabat numbering system). The Vκ1 graft included murine residues in framework positions 43 and 87. The light chain of 113F5-F7 was also humanized onto the Vκ1 framework, with additional murine residues at framework positions 43 and 87. Humanized variant heavy chains (125B11) and light chains (125B11 and 113F5-F7) were co-transfected in multiple combinations and purified in 96-well format as described above. Humanized variants were then screened for affinity for human Tau monomer using the Biacore human IgG capture kit, a Series S CM5 chip and a Biacore T200 instrument. Antibodies were diluted to 2 μg/ml and captured for 15 seconds at 10 μl/min. Association and dissociation of 0, 100 and 500 nM human Tau monomer in HBSP was monitored for 180s and 300s respectively at a flow rate of 40 μl/min. A 1:1 binding model was applied to the results (Table 9).
Variants hu125B11.v17 (HC3+LC1), hu125B11.v26 (HC4+LC2) and hu125B 11.v28 (HC4+LC4) were selected for high-resolution kinetic analysis based on the affinity screen (Table 10). Antibody 94B2-C1 was humanized onto VH1 and Vx2 frameworks. The heavy chain graft also included murine residues at position 28, 29, 67, 69, 71, and 73 (Kabat numbering system). The Vκ2 graft also included murine residues in framework positions 2, 36, and 46. […] Variant hu94B2.v105 (heavy chain variant 94B2.HCl, light chain variant 94B2.LC13) was selected for detailed SPR characterization (Table 11).

T1 sequence (P10636 other isoform, or with tags, fused parts or gaps limits assumed): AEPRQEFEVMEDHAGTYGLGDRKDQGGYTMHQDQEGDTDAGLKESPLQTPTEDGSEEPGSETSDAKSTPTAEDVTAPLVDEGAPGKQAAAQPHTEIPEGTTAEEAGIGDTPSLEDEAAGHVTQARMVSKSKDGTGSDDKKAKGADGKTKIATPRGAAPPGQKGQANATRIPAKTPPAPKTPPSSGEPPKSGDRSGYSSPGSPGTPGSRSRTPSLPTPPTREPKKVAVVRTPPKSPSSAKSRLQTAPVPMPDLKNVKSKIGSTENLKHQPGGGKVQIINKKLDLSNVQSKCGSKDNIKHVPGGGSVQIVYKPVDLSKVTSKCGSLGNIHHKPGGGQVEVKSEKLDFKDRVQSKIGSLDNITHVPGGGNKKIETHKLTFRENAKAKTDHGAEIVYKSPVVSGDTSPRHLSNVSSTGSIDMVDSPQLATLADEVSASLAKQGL

B1: hu37D3-H9.v5.4 (antibody, V domains shown)
VH: EVQLVESGGGLVQPGGSLRLSCAASGLIFRSYGMSWVRQAPGKGLEWVATINSGGTYTYYPDSVKGRFTISRDNSKNTLYLQMNSLRAEDTAVYYCANSYSGAMDYWGQGTLVTVSS
VL: EDVLTQTPLSLPVTPGQPASISCRSSQSIVHSQGNTYFEWYLQKPGQSPQLLIYKVSNRFSGVPDRFSGSGSGTDFTLKISRVEAEDVGVYYCFQGSLVPWTFGQGTKVEIK
B1: in assay [1], the “Stability Index” value is 78%. In addition, the Kd (as a rule, the free concentration of one partner at which half of the binding sites on the other are occupied at equilibrium, for simple one-to-one binding) in assay [2] turned out to be 0.0361 µM.

B2: hu37D3-H9.v31.4 (antibody, V domains shown)
VH: EVQLVESGGGLVQPGGSLRLSCAASGLIFRSYGMSWVRQAPGKGLEWVATINSGGTYTYYPDSVKGRFTISRDNSKNTLYLQMNSLRAEDTAVYYCANSYSGAMDYWGQGTLVTVSS
VL: DDVLTQTPLSLPVTPGQPASISCRSSQSIVHSNAPTYFEWYLQKPGQSPQLLIYKVSNRFSGVPDRFSGSGSGTDFTLKISRVEAEDVGVYYCFQGSLVPWTFGQGTKVEIK
B2: the “Stability Index” value in assay [1] was found to be 533%. The Kd in assay [2] was determined as 0.0008 µM.

B3: hu37D3-H9.v5.6 (antibody, V domains shown)
VH: EVQLVESGGGLVQPGGSLRLSCAASGLIFRSYGMSWVRQAPGKGLEWVATINSGGTYTYYPDSVKGRFTISRDNSKNTLYLQMNSLRAEDTAVYYCANSYSGAMDYWGQGTLVTVSS
VL: EDVLTQTPLSLPVTPGQPASISCRSSQSIVHSAGNTYFEWYLQKPGQSPQLLIYKVSNRFSGVPDRFSGSGSGTDFTLKISRVEAEDVGVYYCFQGSLVPWTFGQGTKVEIK
For B3, in assay [1], the “Stability Index” value was found to be 67%. In addition, the Kd in assay [2] turned out to be 0.0366 µM.

B4: hu37D3-H9.v31.11 (antibody, V domains shown)
VH: EVQLVESGGGLVQPGGSLRLSCAASGLIFRSYGMSWVRQAPGKGLEWVATINSGGTYTYYPDSVKGRFTISRDNSKNTLYLQMNSLRAEDTAVYYCANSYSGAMDYWGQGTLVTVSS
VL: DDVLTQTPLSLPVTPGQPASISCRSSQSIVHSNANFYFEWYLQKPGQSPQLLIYKVSNRFSGVPDRFSGSGSGTDFTLKISRVEAEDVGVYYCFQGSLVPWTFGQGTKVEIK
Take B4: in assay [1], the “Stability Index” value turned out to be 126%. The Kd in assay [2] is 0.0227 µM.

B5: hu37D3-H9.v31.1 (antibody, V domains shown)
VH: EVQLVESGGGLVQPGGSLRLSCAASGLIFRSYGMSWVRQAPGKGLEWVATINSGGTYTYYPDSVKGRFTISRDNSKNTLYLQMNSLRAEDTAVYYCANSYSGAMDYWGQGTLVTVSS
VL: DDVLTQTPLSLPVTPGQPASISCRSSQSIVHSNAGTYFEWYLQKPGQSPQLLIYKVSNRFSGVPDRFSGSGSGTDFTLKISRVEAEDVGVYYCFQGSLVPWTFGQGTKVEIK
Regarding B5, the “Stability Index” value in assay [1] was 72%. Further, in assay [2], the Kd was found to be 0.0412 µM.

B6: hu37D3-H9.v5.5 (antibody, V domains shown)
VH: EVQLVESGGGLVQPGGSLRLSCAASGLIFRSYGMSWVRQAPGKGLEWVATINSGGTYTYYPDSVKGRFTISRDNSKNTLYLQMNSLRAEDTAVYYCANSYSGAMDYWGQGTLVTVSS
VL: EDVLTQTPLSLPVTPGQPASISCRSSQSIVHSEGNTYFEWYLQKPGQSPQLLIYKVSNRFSGVPDRFSGSGSGTDFTLKISRVEAEDVGVYYCFQGSLVPWTFGQGTKVEIK
Turning to B6, in assay [1], the “Stability Index” value is 75%. Further, in assay [2], the Kd is 0.0645 µM.

B7: hu37D3-H9.v31.10 (antibody, V domains shown)
VH: EVQLVESGGGLVQPGGSLRLSCAASGLIFRSYGMSWVRQAPGKGLEWVATINSGGTYTYYPDSVKGRFTISRDNSKNTLYLQMNSLRAEDTAVYYCANSYSGAMDYWGQGTLVTVSS
VL: DDVLTQTPLSLPVTPGQPASISCRSSQSIVHSNANPYFEWYLQKPGQSPQLLIYKVSNRFSGVPDRFSGSGSGTDFTLKISRVEAEDVGVYYCFQGSLVPWTFGQGTKVEIK
For the molecule B7, in assay [1], the “Stability Index” value is 261%. For the same molecule, the Kd in assay [2] came out at 0.0055 µM.

B8: hu94B2 HC6 + LC15 (antibody, V domains shown)
VH: EVQLVQSGAEVKKPGASVKVSCKASGYSLTGYTMNWVRQAPGQGLEWIGLISPYNGVTSYNQKFKGRVTITVDKSTSTAYLELSSLRSEDTAVYYCARQGAYWGQGTLVTVSS
VL: DIVMTQTPLSLPVTPGQPASISCKSSQSLLDSDGKTYLNWYLQKPGQSPQRLIYLVSKLDSGVPDRFSGSGSGTDFTLKISRVEAEDVGVYYCWQGTHFPWTFGQGTKVEIK
For B8, in assay [3], the Kd is 0.0741 µM.

B9: hu94B2 HC8 + LC9 (antibody, V domains shown)
VH: EVQLVQSGAEVKKPGASVKVSCKASGYSLTGYTMNWVRQAPGQGLEWIGLISPYNGVTSYNQKFKGRVTITVDTSTSTAYLELSSLRSEDTAVYYCARQGAYWGQGTLVTVSS
VL: DVVMTQTPLSLPVTPGQPASISCKSSQSLLDSDGKTYLNWLLQKPGQSPQRLIYLVSKLDSGVPDRFSGSGSGTDFTLKISRVEAEDVGVYYCWQGTHFPWTFGQGTKVEIK
In the case of B9, the Kd in assay [3] was determined as 0.001 µM.

B10: hu94B2 HC8 + LC11 (antibody, V domains shown)
VH: EVQLVQSGAEVKKPGASVKVSCKASGYSLTGYTMNWVRQAPGQGLEWIGLISPYNGVTSYNQKFKGRVTITVDTSTSTAYLELSSLRSEDTAVYYCARQGAYWGQGTLVTVSS
VL: DVVMTQTPLSLPVTPGQPASISCKSSQSLLDSDGKTYLNWYLQKPGQSPQRLIYLVSKLDSGVPDRFSGSGSGTDFTLKISRVEAEDVGVYYCWQGTHFPWTFGQGTKVEIK
Turning to B10, the Kd in assay [3] worked out at 0.0443 µM.

B11: hu94B2 HC8 + LC13 (antibody, V domains shown)
VH: EVQLVQSGAEVKKPGASVKVSCKASGYSLTGYTMNWVRQAPGQGLEWIGLISPYNGVTSYNQKFKGRVTITVDTSTSTAYLELSSLRSEDTAVYYCARQGAYWGQGTLVTVSS
VL: DIVMTQTPLSLPVTPGQPASISCKSSQSLLDSDGKTYLNWLLQKPGQSPQRLIYLVSKLDSGVPDRFSGSGSGTDFTLKISRVEAEDVGVYYCWQGTHFPWTFGQGTKVEIK
With B11, the Kd in assay [3] was determined as 0.0024 µM.

B12: hu94B2 HC7 + LC9 (antibody, V domains shown)
VH: EVQLVQSGAEVKKPGASVKVSCKASGYSLTGYTMNWVRQAPGQGLEWIGLISPYNGVTSYNQKFKGRVTITRDKSTSTAYLELSSLRSEDTAVYYCARQGAYWGQGTLVTVSS
VL: DVVMTQTPLSLPVTPGQPASISCKSSQSLLDSDGKTYLNWLLQKPGQSPQRLIYLVSKLDSGVPDRFSGSGSGTDFTLKISRVEAEDVGVYYCWQGTHFPWTFGQGTKVEIK
With B12, the Kd in assay [3] was determined as 0.0529 µM.

B13: hu94B2 HC7 + LC13 (antibody, V domains shown)
VH: EVQLVQSGAEVKKPGASVKVSCKASGYSLTGYTMNWVRQAPGQGLEWIGLISPYNGVTSYNQKFKGRVTITRDKSTSTAYLELSSLRSEDTAVYYCARQGAYWGQGTLVTVSS
VL: DIVMTQTPLSLPVTPGQPASISCKSSQSLLDSDGKTYLNWLLQKPGQSPQRLIYLVSKLDSGVPDRFSGSGSGTDFTLKISRVEAEDVGVYYCWQGTHFPWTFGQGTKVEIK
For B13, in assay [3], the Kd was 0.0578 µM.

B14: hu94B2 HC8 + LC15 (antibody, V domains shown)
VH: EVQLVQSGAEVKKPGASVKVSCKASGYSLTGYTMNWVRQAPGQGLEWIGLISPYNGVTSYNQKFKGRVTITVDTSTSTAYLELSSLRSEDTAVYYCARQGAYWGQGTLVTVSS
VL: DIVMTQTPLSLPVTPGQPASISCKSSQSLLDSDGKTYLNWYLQKPGQSPQRLIYLVSKLDSGVPDRFSGSGSGTDFTLKISRVEAEDVGVYYCWQGTHFPWTFGQGTKVEIK
With B14, the Kd in assay [3] is 0.0515 µM.
